Drawing on patent US5849897, this text covers CPM bound and fold increase (FACS, positive against negative clones) for one substance.

For test [1], the target named is human ciliary neurotrophic factor receptor (CNTFR) (human). Briefly: indirect binding on COS cells transfected with clone I14: CNTF-myc, 9E10, 125I goat anti-mouse; hand-held gamma counter.
The target is the same in test [2]. Briefly: indirect binding on COS cells transfected with clone I11: CNTF-myc, 9E10, 125I goat anti-mouse; hand-held gamma counter.
The target is the same in test [3]. The test is described as follows: indirect binding on COS cells transfected with clone I2: CNTF-myc, 9E10, 125I goat anti-mouse; hand-held gamma counter.
Test [4] has the same target. The test is described as follows: indirect binding on COS cells transfected with clone I5: CNTF-myc, 9E10, 125I goat anti-mouse; hand-held gamma counter.
Test [5] shares this target. Briefly: indirect binding on COS cells transfected with clone I7: CNTF-myc, 9E10, 125I goat anti-mouse; hand-held gamma counter.
The target is the same in test [6]. Briefly: indirect binding on COS cells transfected with clone I15: CNTF-myc, 9E10, 125I goat anti-mouse; hand-held gamma counter.
For test [7] the target is unchanged. The test is described as follows: indirect binding on COS cells transfected with clone I10: CNTF-myc, 9E10, 125I goat anti-mouse; hand-held gamma counter.
For test [8] the target is unchanged. The test is described as follows: indirect binding on COS cells transfected with clone I8: CNTF-myc, 9E10, 125I goat anti-mouse; hand-held gamma counter.
For test [9] the target is unchanged. Briefly: indirect binding: CNTF-myc, 9E10, FITC-labelled goat anti-mouse antibody, FACS of transfected COS cells.
The target is the same in test [10]. The test is described as follows: indirect binding on COS cells transfected with clone I13: CNTF-myc, 9E10, 125I goat anti-mouse; hand-held gamma counter.
The target is the same in test [11]. The test is described as follows: indirect binding on COS cells transfected with clone I6: CNTF-myc, 9E10, 125I goat anti-mouse; hand-held gamma counter.
Test [12] has the same target. Briefly: indirect binding on COS cells transfected with clone I1: CNTF-myc, 9E10, 125I goat anti-mouse; hand-held gamma counter.
Test [13] shares this target. The test is described as follows: indirect binding on COS cells transfected with clone I12: CNTF-myc, 9E10, 125I goat anti-mouse; hand-held gamma counter.
Test [14] has the same target. Briefly: indirect binding on COS cells transfected with clone I9: CNTF-myc, 9E10, 125I goat anti-mouse; hand-held gamma counter.
For test [15] the target is unchanged. Briefly: indirect binding on COS cells transfected with clone I4: CNTF-myc, 9E10, 125I goat anti-mouse; hand-held gamma counter.

As to CNTF/myc (ligand), the CPM bound in test [1] came out at 10000 CPM; in test [2], 7000 CPM; in [3] it was 8500 CPM; in test [4] it was 2000 CPM; in test [5] it was 6000 CPM; in [6] it was 8000 CPM. For the same substance, the CPM bound is 4500 CPM in test [7]; 7500 CPM in test [8]; 8000 CPM in [10]; 1600 CPM in test [11]; 2000 CPM in test [12]; 5000 CPM in test [13]. For the same substance, the values for the CPM bound in [14] and in [15] were 7000 CPM and 9000 CPM, respectively. The fold increase (FACS, positive against negative clones) in [9] amounted to 100 fold.
